Square brackets hold non-standard residues; d marks the D form. Ends that are not written are not given here. Peptide text beside a SMILES is read from it. * marks the point of attachment. Biotin = O=C1N[C@H]2[C@H](CS[C@H]2CCCCC(=O)*)N1
How the values were obtained:
[1] = biological target: T1, Tat (ARM)-TAR RNA interaction (Human immunodeficiency virus type 1 group M subtype B, UniProt P04608); test: TR-FRET assay with biotinylated ARM and Eu-conjugated StAV; assay type: binding, HIV-1; details: five-thousand-fold excess
T1 construct: purchased Peptron, Daejeon, Republic of Korea (custom peptide synthesis); host or cells: chemical synthesis
From the text: Initially, a simplified TR-FRET assay was designed to determine the interaction of Tat (ARM)-TAR RNA using 5′-cyanine 5 (Cy5)-labeled TAR RNA (31 nt) and Tat (ARM) tagged with either biotin, HA, FLAG, or FITC; this was based on size-minimalized analytes to focus on the essential biochemical relevance of the Tat-TAR RNA interaction. After Tat (ARM) binds to the TAR RNA, each Eu-conjugated antibody recognized the cognate tag on the Tat (ARM) peptide. When the reaction is irradiated with a 320 nm laser, the emissive energy from the donor Eu chelate is then transferred to the Cy5 dye-labeled to TAR RNA placed at a close distance (~10 nm), resulting in luminescence at 665 nm from Cy5 and 615 nm from Eu. A certain substance inhibiting the Tat-TAR RNA interaction causes the loss of luminescence in the sample at 665 nm emission (Figure 1A). To determine which Eu-conjugated recognizer (anti-Flag, -HA, FITC antibodies, or streptavidin) is appropriate for successfully establishing the TR-FRET assay, 20 nM of ARM tagged with each epitope and the same concentration of Cy5-labeled TAR RNA fragment were incubated with 5 nM of cognate Eu-conjugated recognizer.
StAV-Eu + + + + + + + + + + + + + + + + + + + + + + StAV-Eu + + + + + + + + + + + + […]
Bio-ARM + + + + + + + + + + + + + + + + + + + + + Biotin-ARM - + - + - + - + - + - +
Competitor BSA ARM L-22 LK-3 L-50
Figure S1. […]

[2] = system: Tat (ARM)-TAR RNA interaction
Procedure: To test whether our assay is applicable for screening specific inhibitors of the Tat-TAR RNA interaction, inhibition assays were performed with known inhibitors of the Tat-TAR RNA interaction. […] A dose–response competition assay was conducted at inhibitor concentrations of 0–100 μM to determine their inhibitory curves in our assay. […] Additionally, a dose-responsive competition assay using RNA fragments was performed to validate the specificity of the assay.
Data are expressed as the mean ± SD (n = 3) compared to a control lacking an RNA competitor.
The indicated concentrations of ARM and Cy5-TAR RNA fragments were incubated in 20 μL of 1× LANCE ultra assay buffer in 384-well microtiter plates with or without inhibitor (competitor) for 30 min at 20 °C in the dark. […] The reaction was performed in a final volume of 25 μL. Small volumes of the reaction solution were added automatically using Assist-Plus (Integra Bioscience, Zisers, Switzerland). After adding all the assay components, the plates were sealed with a clear cover. The ARM-TAR RNA interaction signal was measured in an EnSight multimode plate reader (PerkinElmer) using the LANCE protocol of the time-resolved fluorescence (TRF) mode in the Kaleido software (PerkinElmer), according to the manufacturer’s protocol. Briefly, the excitation light was directed to the donor (Eu) from the Xenon flash lamp at 320 nm selected by an optical filter, and then, an integration time of 100 μs and a delay time of 70 μs were provided to remove short-lived background signals; subsequently, two emission lights were detected at 615 nm for the donor (Eu) and 665 nm for the acceptor (Cy5). The TRF was measured from the top using an excitation filter and emission monochromators in a single measurement mode. The TR-FRET output signal was expressed as the emission ratio of acceptor/donor (665/615 nm × 1000) fluorescence counts. The fold activity of the TR-FRET signal for ARM-TAR RNA interaction was calculated compared to the control reaction lacking the ARM peptide.

TAR RNA = biological target: TAR RNA; design: method as in PMID 19584251; details: EMSA; read-out: Kd determined by EMSA; cited from earlier work
HIV-1 = details: read-out: IC50 of HIV-1 infection; cited from earlier work
L-22 cyclic peptide = test: TR-FRET competition
L-51 cyclic peptide = test: TR-FRET competition
L-50 cyclic peptide = test: TR-FRET competition
LK3 peptide = test: TR-FRET competition
Biotin-Tat (ARM) = biological target: T2, Biotin-Tat (ARM) (HIV-1 NL4-3, UniProt P04608); test: TR-FRET; 20 nM each; Eu-StAV; poorly competed by free ARM and L-22; details: tags: N-terminal biotin; label: 5'-Cy5; hairpin with UCU bulge
T2 chain: Biotin-GISYGRKKRRQRRRA

Flag-Tat (ARM) [3] = biological target: T3, Flag-Tat (ARM) (HIV-1 NL4-3, UniProt P04608); test: TR-FRET; up to 100 nM each; Eu-anti-Flag 5 nM; details: tags: N-terminal FLAG; label: 5'-Cy5; hairpin with UCU bulge
T3 chain: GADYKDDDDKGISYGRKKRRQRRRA

Tat (ARM), tag-free = biological target: T4, Tat (ARM), tag-free (HIV-1 NL4-3, UniProt P04608); test: competition; TR-FRET, 10-fold excess over Flag-ARM; details: label: 5'-Cy5; hairpin with UCU bulge
T4 chain: GISYGRKKRRQRRRA

Flag-Tat (ARM) [4] = biological target: T3, Flag-Tat (ARM); test: TR-FRET; 50 nM each; details: tags: N-terminal FLAG; label: 5'-Cy5; hairpin without bulge

Which results are given for `CC[C@H](C)[C@@H]1NC(=O)[C@H](CCCNC(=N)N)NC(=O)[C@H](CCCNC(=N)N)NC(=O)CNC(=O)[C@H](CCCCN)NC(=O)[C@H](CCCNC(=N)N)NC(=O)[C@H]([C@@H](C)O)NC(=O)[C@H](CCCNC(=N)N)NC(=O)[C@H](C(C)C)NC(=O)[C@H](CCCNC(=N)N)NC(=O)[C@@H]2CCCN2C(=O)[C@H]2CCCN2C(=O)[C@H]([C@@H](C)CC)NC(=O)[C@H](CCCNC(=N)N)NC1=O` [Hit L-22] (cyclo(RVRTRKGRRIRI[dP]P))?
inhibition of TR-FRET signal, in words [1]: insufficient inhibition; IC50 ([2]; read-out: IC50 of ARM-TAR RNA interaction (TR-FRET competition), 50 nM Flag-ARM and 5′-Cy5-TAR RNA, inhibitor 0-100 μM): 228 nM; Kd (TAR RNA): 30 nM

With `Nc1ccc2oc(-c3cc(F)c(F)cc3Cl)nc2c1` [Hit T0516-4834] as the molecule, how does the IC50 (HIV-1) read?
The IC50 was 200 nM.

Which IC50 (L-22 cyclic peptide) does the source give for “GGCCAGAUCUGAGCCUGGGAGCUCUCUGGCC [Cy5-TAR RNA (31 nt)]” here?
Its IC50 is 228 nM.

What about the IC50 (L-51 cyclic peptide) of the same molecule?
Its IC50 is 276 nM.

And the IC50 (L-50 cyclic peptide)?
The IC50 was 95.9 nM.

And the IC50 (LK3 peptide)?
The IC50 was 67.8 nM.

Which results are given for GISYGRKKRRQRRRA [ARM]?
inhibition of TR-FRET signal, in words [1]: insufficient inhibition; inhibition of TR-FRET signal ([2]; 500 nM competitor, control of primary screen): ~ 70%; TR-FRET signal in peptide/protein competition assay, in words ([2]; 10-fold excess competitor, 50 nM analytes): significantly decreased

B1: Cy5-TAR RNA (31 nt) (structured_RNA)
RNA: GGCCAGAUCUGAGCCUGGGAGCUCUCUGGCC
Does B1 bind (Biotin-Tat (ARM))?
Result: binds

And the binding signal (Flag-Tat (ARM) [3])?
The binding signal was ~11 fold signal over background.

Does B1 bind (Tat (ARM), tag-free)?
Result: binds

B2: Cy5-mt TAR RNA (28 nt, bulge-free) (structured_RNA)
RNA: GGCCAGAGAGCCUGGGAGCUCUCUGGCC
Does B2 bind (Flag-Tat (ARM) [4])?
Result: no binding
